Data: patent US20120040474A1 (published 2012)

T1: denatured glycoprotein RNase B, P61823
T1 chain: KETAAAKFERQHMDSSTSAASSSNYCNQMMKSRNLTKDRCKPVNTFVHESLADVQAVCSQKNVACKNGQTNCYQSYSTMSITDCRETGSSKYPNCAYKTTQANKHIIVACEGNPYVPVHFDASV

T2: denatured glycoprotein RNase B (UniProt P61823 27-150, a single N-glycosylation site predominantly occupied by high mannose oligosaccharides; protein denatured)
T2 construct: Recognition by the PNGase F mutants and by Con A goes through the N-linked glycan on the protein; also called denatured RNase B; dRNAse B
T2 sequence (looked up): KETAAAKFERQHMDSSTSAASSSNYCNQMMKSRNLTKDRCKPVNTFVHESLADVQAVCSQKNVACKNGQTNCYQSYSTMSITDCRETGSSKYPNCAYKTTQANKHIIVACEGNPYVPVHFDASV


Tests used:
[1] = target: denatured glycoprotein RNase B (UniProt P61823); experiment: reference value of Table 7
[2] = target: T1, denatured glycoprotein RNase B, P61823; experiment: enzyme Km of the wild type, used as reference for the SPR Kd values
[3] = target: T2, denatured glycoprotein RNase B; experiment: SPR Kd against wild type Km

Molecule	Relative Enhancement (relative to wild type) [3]	also measured
PNGase F, Peptide-N4-(acetyl-β-D-glucosaminyl)-asparagine amidase, wild type (D60) (from UniProt P21163 41-354) (enzyme)	–	Relative Enhancement (relative to wild type) [1]: 1 fold
PNGase F, Peptide-N4-(acetyl-β-D-glucosaminyl)-asparagine amidase, wild type (D60) (protein) APADNTVNIKTFDKVKNAFGDGLSQSAEGTFTFPADVTTVKTIKMFIKNECPNKTCDEWDRYANVYVKNKTTGEWYEIGRFITPYWVGTEKLPRGLEIDVTDFKSLLSGNTELKIYTETWLAKGREYSVDFDIVYGTPDYKYSAVVPVIQYNKSSIDGVPYGKAHTLGLKKNIQLPTNTEKAYLRTTISGWGHAKPYDAGSRGCAEWCFRTHTIAINNANTFQHQLGALGCSANPINNQSPGNWAPDRAGWCPGMAVPTRIDVLNNSLTGSTFSYEYKFQSWTNNGTNGDAFYAISSFVIAKSNTPISAPVVTN	–	Km (printed in the Kd column, footnote a) [2]: 6.4 mM
PNGase F D60A mutant (enzyme) APADNTVNIKTFDKVKNAFGDGLSQSAEGTFTFPADVTTVKTIKMFIKNECPNKTCDEWARYANVYVKNKTTGEWYEIGRFITPYWVGTEKLPRGLEIDVTDFKSLLSGNTELKIYTETWLAKGREYSVDFDIVYGTPDYKYSAVVPVIQYNKSSIDGVPYGKAHTLGLKKNIQLPTNTEKAYLRTTISGWGHAKPYDAGSRGCAEWCFRTHTIAINNANTFQHQLGALGCSANPINNQSPGNWAPDRAGWCPGMAVPTRIDVLNNSLTGSTFSYEYKFQSWTNNGTNGDAFYAISSFVIAKSNTPISAPVVTN	580 fold	–
PNGase F D60A/D57A mutant (enzyme) APADNTVNIKTFDKVKNAFGDGLSQSAEGTFTFPADVTTVKTIKMFIKNECPNKTCAEWARYANVYVKNKTTGEWYEIGRFITPYWVGTEKLPRGLEIDVTDFKSLLSGNTELKIYTETWLAKGREYSVDFDIVYGTPDYKYSAVVPVIQYNKSSIDGVPYGKAHTLGLKKNIQLPTNTEKAYLRTTISGWGHAKPYDAGSRGCAEWCFRTHTIAINNANTFQHQLGALGCSANPINNQSPGNWAPDRAGWCPGMAVPTRIDVLNNSLTGSTFSYEYKFQSWTNNGTNGDAFYAISSFVIAKSNTPISAPVVTN	910 fold	–
PNGase F D60A/E206A mutant (enzyme) APADNTVNIKTFDKVKNAFGDGLSQSAEGTFTFPADVTTVKTIKMFIKNECPNKTCDEWARYANVYVKNKTTGEWYEIGRFITPYWVGTEKLPRGLEIDVTDFKSLLSGNTELKIYTETWLAKGREYSVDFDIVYGTPDYKYSAVVPVIQYNKSSIDGVPYGKAHTLGLKKNIQLPTNTEKAYLRTTISGWGHAKPYDAGSRGCAAWCFRTHTIAINNANTFQHQLGALGCSANPINNQSPGNWAPDRAGWCPGMAVPTRIDVLNNSLTGSTFSYEYKFQSWTNNGTNGDAFYAISSFVIAKSNTPISAPVVTN	320 fold	–
PNGase F E206A mutant (enzyme) APADNTVNIKTFDKVKNAFGDGLSQSAEGTFTFPADVTTVKTIKMFIKNECPNKTCDEWDRYANVYVKNKTTGEWYEIGRFITPYWVGTEKLPRGLEIDVTDFKSLLSGNTELKIYTETWLAKGREYSVDFDIVYGTPDYKYSAVVPVIQYNKSSIDGVPYGKAHTLGLKKNIQLPTNTEKAYLRTTISGWGHAKPYDAGSRGCAAWCFRTHTIAINNANTFQHQLGALGCSANPINNQSPGNWAPDRAGWCPGMAVPTRIDVLNNSLTGSTFSYEYKFQSWTNNGTNGDAFYAISSFVIAKSNTPISAPVVTN	580 fold	–
PNGase F D60A/R125A mutant (enzyme) APADNTVNIKTFDKVKNAFGDGLSQSAEGTFTFPADVTTVKTIKMFIKNECPNKTCDEWARYANVYVKNKTTGEWYEIGRFITPYWVGTEKLPRGLEIDVTDFKSLLSGNTELKIYTETWLAKGAEYSVDFDIVYGTPDYKYSAVVPVIQYNKSSIDGVPYGKAHTLGLKKNIQLPTNTEKAYLRTTISGWGHAKPYDAGSRGCAEWCFRTHTIAINNANTFQHQLGALGCSANPINNQSPGNWAPDRAGWCPGMAVPTRIDVLNNSLTGSTFSYEYKFQSWTNNGTNGDAFYAISSFVIAKSNTPISAPVVTN	360 fold	–
PNGase F D60A/E206R mutant (enzyme) APADNTVNIKTFDKVKNAFGDGLSQSAEGTFTFPADVTTVKTIKMFIKNECPNKTCDEWARYANVYVKNKTTGEWYEIGRFITPYWVGTEKLPRGLEIDVTDFKSLLSGNTELKIYTETWLAKGREYSVDFDIVYGTPDYKYSAVVPVIQYNKSSIDGVPYGKAHTLGLKKNIQLPTNTEKAYLRTTISGWGHAKPYDAGSRGCARWCFRTHTIAINNANTFQHQLGALGCSANPINNQSPGNWAPDRAGWCPGMAVPTRIDVLNNSLTGSTFSYEYKFQSWTNNGTNGDAFYAISSFVIAKSNTPISAPVVTN	240 fold	–
PNGase F D60N mutant (enzyme) APADNTVNIKTFDKVKNAFGDGLSQSAEGTFTFPADVTTVKTIKMFIKNECPNKTCDEWNRYANVYVKNKTTGEWYEIGRFITPYWVGTEKLPRGLEIDVTDFKSLLSGNTELKIYTETWLAKGREYSVDFDIVYGTPDYKYSAVVPVIQYNKSSIDGVPYGKAHTLGLKKNIQLPTNTEKAYLRTTISGWGHAKPYDAGSRGCAEWCFRTHTIAINNANTFQHQLGALGCSANPINNQSPGNWAPDRAGWCPGMAVPTRIDVLNNSLTGSTFSYEYKFQSWTNNGTNGDAFYAISSFVIAKSNTPISAPVVTN	290 fold	–
PNGase F D60A/E206Q mutant (enzyme) APADNTVNIKTFDKVKNAFGDGLSQSAEGTFTFPADVTTVKTIKMFIKNECPNKTCDEWARYANVYVKNKTTGEWYEIGRFITPYWVGTEKLPRGLEIDVTDFKSLLSGNTELKIYTETWLAKGREYSVDFDIVYGTPDYKYSAVVPVIQYNKSSIDGVPYGKAHTLGLKKNIQLPTNTEKAYLRTTISGWGHAKPYDAGSRGCAQWCFRTHTIAINNANTFQHQLGALGCSANPINNQSPGNWAPDRAGWCPGMAVPTRIDVLNNSLTGSTFSYEYKFQSWTNNGTNGDAFYAISSFVIAKSNTPISAPVVTN	360 fold	–
PNGase F D60A/E206K mutant (enzyme) APADNTVNIKTFDKVKNAFGDGLSQSAEGTFTFPADVTTVKTIKMFIKNECPNKTCDEWARYANVYVKNKTTGEWYEIGRFITPYWVGTEKLPRGLEIDVTDFKSLLSGNTELKIYTETWLAKGREYSVDFDIVYGTPDYKYSAVVPVIQYNKSSIDGVPYGKAHTLGLKKNIQLPTNTEKAYLRTTISGWGHAKPYDAGSRGCAKWCFRTHTIAINNANTFQHQLGALGCSANPINNQSPGNWAPDRAGWCPGMAVPTRIDVLNNSLTGSTFSYEYKFQSWTNNGTNGDAFYAISSFVIAKSNTPISAPVVTN	360 fold	–
